Laboratory results as given in US20250320312A1 (OXITOPE PHARMA B V, published 2025).
Where a chain is given by its changes, count along the chain named.

T1: Peptide 4: Biotin-AGGGGSGGGGSGGGGSAAA-Tyr-acid (N-terminal biotin; C-terminal acid)
T1 construct: control peptide without PC
T1 peptide: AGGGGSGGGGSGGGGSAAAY

T2: Peptide 8: Biotin-AEAAAKEAAAKEAAAKEAAAKAAA-Tyr-acid (N-terminal biotin; C-terminal acid)
T2 construct: control peptide without PC
T2 peptide: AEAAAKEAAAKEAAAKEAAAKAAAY

T3: Peptide 4: Biotin-AGGGGSGGGGSGGGGSAAA-Tyr-acid (N-terminal biotin; C-terminal acid)
T3 construct: Control peptide without PC
T3 peptide: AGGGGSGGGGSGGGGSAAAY

T4: Peptide 8: Biotin-AEAAAKEAAAKEAAAKEAAAKAAA-Tyr-acid (N-terminal biotin; C-terminal acid)
T4 construct: Control peptide without PC
T4 peptide: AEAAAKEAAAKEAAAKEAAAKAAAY

B1: PcOxP_DB03_A11 (scFv, V domains shown)
VH: EVQLLESGGGLVQPGGSLRLSCAASGFTFSSYYMEWVRQAPGKGLEWVAASRNQANDYTTEYADSVKGRFTISRDNSKNTLYLQMNSLRAEDTAVYYCARDYYGSSYWYLDVWGQGTLVTVSS
VL: DIQMTQSPSSLSASVGDRVTITCTASESLYSSKHKVHYLAWYQQKPGKAPKLLIYGADNRYIGVPSRFSGSGSGTDFTLTISSLQPEDFATYYCAQFYHYPLTFGGGTKVEIK
notes: scFv in periplasmic extract
B2: PcOxP_DB01_H08 (scFv, V domains shown)
VH: B1 VH with F29H, S31D, Y32F, Q54K, L110F
VL: DIQMTQSPSSLSASVGDRVTITCRASESISSSKHKHYLAWYQQKPGKAPKLLIYGASNRYIGVPSRFSGSGSGTDFTLTISSLQPEDFATYYCAQFYVYPLTFGGGTKVEIK
notes: scFv in periplasmic extract
B3: PcOxP_DB04_G05 (scFv, V domains shown)
VH: B1 VH with S31D, Y32F, Q54K, Y102F, L110F
VL: DIVMTQSPDSLAVSLGERATINCTASESLYSSKHKVHYLAWYQQKPGQPPKLLIYGASNRYIGVPDRFSGSGSGTDFTLTISSLQAEDVAVYYCAQFYSYPLTFGGGTKVEIK
notes: scFv in periplasmic extract
B4: PcOxP_DB03_F10 (scFv, V domains shown)
VH: B1 VH with S31D, Y32H, Q54S, A55G, D57S, L110F
VL: B1 VL with K35S, D58S, Y61F, H99S
notes: scFv in periplasmic extract
B5: PcOxP_DB03_G03 (scFv, V domains shown)
VH: B1 VH with F29S, S31D, Y32F, Q54K, L110F
VL: B1 VL with E27Q, L29I, Y30S, D58S, R60H, H99S
notes: scFv in periplasmic extract
B6: PcOxP_DB03_G02 (scFv, V domains shown)
VH: B1 VH with S31D, Y32G, M34I, Q54K, L110F
VL: B1 VL with S28E, D58S, H99S
notes: scFv in periplasmic extract
B7: PcOxP_DB03_E08 (scFv, V domains shown)
VH: B1 VH with Y32F, Q54A, L110F, V112L
VL: B1 VL with D58S, H99F
notes: scFv in periplasmic extract
B8: PcOxP_DB03_G06 (scFv, V domains shown)
VH: B1 VH with S31D, Y32F, Q54K, L110F
VL: B1 VL with D58S, H99E
notes: scFv in periplasmic extract
B9: PcOxP_DB03_F01 (scFv, V domains shown)
VH: B1 VH with S30N, S31D, Y32F, Q54K, L110F
VL: B1 VL with T24E, D58S, Y61L, H99E
notes: scFv in periplasmic extract
B10: PcOxP_DB03_E09 (scFv, V domains shown)
VH: B1 VH with F29A, S31D, Y32F, Q54K, Y58Q, L110F, V112S
VL: B1 VL with D58S, Y61Q, I62S, H99S
notes: scFv in periplasmic extract
B11: PcOxP_DB03_G07 (scFv, V domains shown)
VH: B1 VH with S31D, Y32H, Q54K, S105Q, L110F
VL: B1 VL with D58S, H99S
notes: scFv in periplasmic extract
B12: PcOxP_DB03_C11 (scFv, V domains shown)
VH: B1 VH with T28D, S31D, Y32F, Q54K, E61D, Y103F, L110F
VL: B1 VL with D58S, I62Q, H99F
notes: scFv in periplasmic extract
B13: PcOxP_DB03_D01 (scFv, V domains shown)
VH: B1 VH with S31D, Y32E, Q54K, L110F
VL: B1 VL with D58S, H99Y
notes: scFv in periplasmic extract
B14: PcOxP_DB02_E12 (scFv, V domains shown)
VH: B1 VH with T28G, S31D, Y32F, Q54K, L110F
VL: B3 VL with Q96E
notes: scFv in periplasmic extract
B15: PcOxP_DB03_C03 (scFv, V domains shown)
VH: B1 VH with S31D, Y32F, Q54K, A55Y, L110F
VL: B1 VL with D58S, H99S
notes: scFv in periplasmic extract
B16: PcOxP_DB03_C06 (scFv, V domains shown)
VH: B1 VH with F27A, S31D, Y32F, Q54G, S105N, L110F
VL: B1 VL with D58S, Y61Q, I62S, H99V
notes: scFv in periplasmic extract
B17: PcOxP_DB03_D08 (scFv, V domains shown)
VH: B1 VH with T28W, S31D, Y32F, Q54K, S106A, L110F
VL: B1 VL with D58S, H99S
notes: scFv in periplasmic extract
B18: PcOxP_DB03_C12 (scFv, V domains shown)
VH: B1 VH with S31D, Q54K, L110F
VL: B1 VL with D58S, I62G, H99S
notes: scFv in periplasmic extract
B19: PcOxP_DB03_B02 (scFv, V domains shown)
VH: B1 VH with T28A, S31D, Y32F, Q54K, L110F
VL: B1 VL with D58S, I62D, H99E
notes: scFv in periplasmic extract
B20: PcOxP_DB03_D07 (scFv, V domains shown)
VH: B1 VH with S31D, Y32V, Q54K, L110F
VL: B1 VL with D58S, I62S, H99K
notes: scFv in periplasmic extract
B21: PcOxP_DB03_E02 (scFv, V domains shown)
VH: B1 VH with F27W, S31D, Y32F, Q54K, L110F
VL: B1 VL with S32Q, D58S, H99Y
notes: scFv in periplasmic extract
B22: PcOxP_DB03_E01 (scFv, V domains shown)
VH: B1 VH with S31D, Q54K, T60V, L110F
VL: B1 VL with A57T, D58S, H99E
notes: scFv in periplasmic extract
B23: PcOxP_DB03_D11 (scFv, V domains shown)
VH: B1 VH with S31D, Y32F, Q54K, S105H, L110F
VL: B1 VL with D58S, N59S, H99E
notes: scFv in periplasmic extract
B24: PcOxP_DB03_E07 (scFv, V domains shown)
VH: B1 VH with S31D, Y32N, Q54K, T60N, L110F
VL: B1 VL with D58S, H99S
notes: scFv in periplasmic extract

Target: BSA (UniProt P02769)
Experiment: scFv ELISA

BSA, sequence (P02769 25-607 limits assumed): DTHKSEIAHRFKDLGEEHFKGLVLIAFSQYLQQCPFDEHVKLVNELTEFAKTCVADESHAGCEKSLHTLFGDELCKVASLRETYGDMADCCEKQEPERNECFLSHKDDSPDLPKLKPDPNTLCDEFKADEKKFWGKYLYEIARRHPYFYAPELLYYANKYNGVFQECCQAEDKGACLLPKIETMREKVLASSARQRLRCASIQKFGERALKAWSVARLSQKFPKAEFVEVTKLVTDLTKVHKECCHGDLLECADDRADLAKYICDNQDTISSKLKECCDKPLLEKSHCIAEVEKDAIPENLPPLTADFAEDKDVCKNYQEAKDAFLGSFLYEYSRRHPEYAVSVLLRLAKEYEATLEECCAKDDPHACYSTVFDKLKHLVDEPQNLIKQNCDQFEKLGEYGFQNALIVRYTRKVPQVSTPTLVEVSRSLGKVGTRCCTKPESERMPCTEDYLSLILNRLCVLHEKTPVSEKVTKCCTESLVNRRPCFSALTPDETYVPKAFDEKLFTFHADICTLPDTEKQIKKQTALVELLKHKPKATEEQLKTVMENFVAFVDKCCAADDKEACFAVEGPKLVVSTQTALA

Binder | OD450 [OD450]
B1 | 0.08
B2 | 0.09
B3 | 0.07
B4 | 0.09
B5 | 0.08
B6 | 0.07
B7 | 0.09
B8 | 0.1
B9 | 0.09
B10 | 0.08
B11 | 0.1
B12 | 0.07
B13 | 0.08
B14 | 0.06
B15 | 0.09
B16 | 0.07
B17 | 0.1
B18 | 0.09
B19 | 0.07
B20 | 0.12
B21 | 0.11
B22 | 0.09
B23 | 0.08
B24 | 0.08

Target: Peptide 1: Biotin-…-[Tyr(PC)]-acid
Experiment: scFv ELISA

Binder | OD450 [OD450]
B1 | 1.12
B2 | 0.56
B3 | 1.2
B4 | 0.65
B5 | 1.57
B6 | 1.33
B7 | 0.87
B8 | 2.48
B9 | 0.58
B10 | 0.39
B11 | 2.18
B12 | 1.14
B13 | 2.51
B14 | 0.26
B15 | 1.36
B16 | 0.64
B17 | 0.54
B18 | 2.74
B19 | 2.02
B20 | 0.75
B21 | 2
B22 | 2.5
B23 | 0.5
B24 | 0.78

Target: Peptide 5: Biotin-…-[Tyr(PC)]-acid
Experiment: scFv ELISA

Binder | OD450 [OD450]
B1 | 1.08
B2 | 0.85
B3 | 1.67
B4 | 0.85
B5 | 1.8
B6 | 1.59
B7 | 0.92
B8 | 2.01
B9 | 0.8
B10 | 0.72
B11 | 1.67
B12 | 0.75
B13 | 1.6
B14 | 0.58
B15 | 1.66
B16 | 0.61
B17 | 0.57
B18 | 1.77
B19 | 1.64
B20 | 0.95
B21 | 1.49
B22 | 2.11
B23 | 0.66
B24 | 0.86

Target: T1, Peptide 4: …
Experiment: scFv ELISA
Method in brief: (§1)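 Bound scFv was read as OD450 after HRP–anti-V5 detection, TMB development and HCl stop. PPE with BSA was incubated 1 h at RT on BSA-blocked wells coated overnight at 4° C. with peptide, or on streptavidin wells loaded 1 h with biotinylated PC-peptides at 1 μg/mL.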

Binder | OD450 [OD450]
B1 | 0.05
B2 | 0.06
B4 | 0.05
B5 | 0.05
B6 | 0.04
B7 | 0.05
B8 | 0.06
B9 | 0.05
B10 | 0.05
B11 | 0.06
B12 | 0.05
B13 | 0.05
B15 | 0.05
B16 | 0.05
B17 | 0.05
B18 | 0.05
B19 | 0.05
B20 | 0.06
B21 | 0.06
B22 | 0.06
B23 | 0.06
B24 | 0.05

Target: T2, Peptide 8: …
Experiment: scFv ELISA
Method in brief: as §1

Binder | OD450 [OD450]
B1 | 0.05
B2 | 0.06
B4 | 0.07
B5 | 0.08
B6 | 0.05
B7 | 0.05
B8 | 0.06
B9 | 0.05
B10 | 0.05
B11 | 0.05
B12 | 0.04
B13 | 0.05
B15 | 0.05
B16 | 0.05
B17 | 0.05
B18 | 0.05
B19 | 0.05
B20 | 0.05
B21 | 0.05
B22 | 0.06
B23 | 0.05
B24 | 0.05

Target: T3, Peptide 4: …
Experiment: scFv ELISA
Method in brief: as §1

Binder | OD450 [OD450]
B3 | 0.05
B14 | 0.05

Target: T4, Peptide 8: …
Experiment: scFv ELISA
Method in brief: as §1

Binder | OD450 [OD450]
B3 | 0.05
B14 | 0.06
